Molecular target: T1, Human SLIT3-N (human, UniProt O75094 34-1119, limits assumed)
T1 construct: domain: SLIT3-N; d2-labelled in the HTRF assay
T1 sequence (looked up): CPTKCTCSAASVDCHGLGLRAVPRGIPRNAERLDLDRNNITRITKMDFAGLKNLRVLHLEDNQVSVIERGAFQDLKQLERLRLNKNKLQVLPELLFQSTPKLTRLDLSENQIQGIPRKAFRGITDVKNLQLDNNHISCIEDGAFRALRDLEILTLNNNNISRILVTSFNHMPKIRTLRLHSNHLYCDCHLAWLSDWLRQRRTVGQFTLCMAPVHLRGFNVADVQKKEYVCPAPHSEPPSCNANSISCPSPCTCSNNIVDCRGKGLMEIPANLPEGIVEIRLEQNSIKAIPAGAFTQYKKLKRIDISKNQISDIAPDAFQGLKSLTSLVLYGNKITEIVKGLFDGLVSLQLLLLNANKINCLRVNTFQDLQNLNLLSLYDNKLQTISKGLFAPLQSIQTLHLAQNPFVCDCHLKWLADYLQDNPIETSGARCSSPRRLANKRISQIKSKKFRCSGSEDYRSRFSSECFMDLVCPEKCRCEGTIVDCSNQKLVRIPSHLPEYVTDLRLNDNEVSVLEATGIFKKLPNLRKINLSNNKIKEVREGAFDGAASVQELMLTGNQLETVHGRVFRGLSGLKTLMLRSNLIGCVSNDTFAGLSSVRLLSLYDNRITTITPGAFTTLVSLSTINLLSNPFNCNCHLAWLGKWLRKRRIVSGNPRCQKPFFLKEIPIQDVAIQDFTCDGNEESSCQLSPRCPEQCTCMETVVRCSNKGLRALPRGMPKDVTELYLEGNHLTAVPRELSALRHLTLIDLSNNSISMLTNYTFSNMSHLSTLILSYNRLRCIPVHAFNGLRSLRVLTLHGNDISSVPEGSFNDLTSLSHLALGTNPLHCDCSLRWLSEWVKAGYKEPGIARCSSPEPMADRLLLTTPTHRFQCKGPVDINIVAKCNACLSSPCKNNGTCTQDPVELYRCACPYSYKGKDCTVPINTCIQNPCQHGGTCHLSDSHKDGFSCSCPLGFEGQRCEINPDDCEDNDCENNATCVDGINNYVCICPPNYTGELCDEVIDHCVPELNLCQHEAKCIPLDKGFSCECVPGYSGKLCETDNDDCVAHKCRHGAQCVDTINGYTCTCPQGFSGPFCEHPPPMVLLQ
Assay: HTRF competition: d2-labelled human SLIT3-N binding to human ROBO2 on HEK293 cells; geometric mean, n=3
Protocol: After incubation, fluorescence at 665 nm and 620 nm was measured on an Envision multilabel plate reader. The HTRF Ratio was calculated as follows: fluorescence at 665 nm/fluorescence at 620 nm×10,000. […] The IC₅₀ for each SLITx-N was determined using an 11-point, 4-fold dilution series with a top concentration of 4000 nM.

IC50: 5.1 nM
B1: ROBO2-Fc 2.2 (Fc fusion)
chain: SRLRQEDFPPRIVEHPSDVIVSKGEPTTLNCKAEGRPTPTIEWYKDGERVETDKDDPRSHRMLLPSGSLFFLRIVHGRRSKPDEGSYVCVARNYLGEAVSRNASLEVALLRDDFRQNPTDVVVAAGEPAILECQPPRGHPEPTIYWKKDKVRIDDKEERISIRGGKLMISNTRKSDAGMYTCVGTNMVGERDSDPAELTVFERGGSGGSEPKSSDKTHTCPPCPAPEAAGAPSVFLFPPKPKDTLMISRTPEVTCVVVDVSHEDPEVKFNWYVDGVEVHNAKTKPREEQYNSTYRVVSVLTVLHQDWLNGKEYKCKVSNKALPAPIEKTISKAKGQPREPQVYTLPPSREEMTKNQVSLTCLVKGFYPSDIAVEWESNGQPENNYKTTPPVLDSDGSFFLYSKLTVDKSRWQQGNVFSCSVMHEALHNHYTQKSLSLSPG
notes: Labelled with Alexa Fluor 647 in the flow cytometry assay; also called ROBO-Fc 2.2; ROBO2-Fc 2.2-AF647
